The text below walks through data of patent US20100081612A1 (GENERAL HOSPITAL, published 2010).

Like-named read-outs stand apart in the source and are kept apart here. Where no end group is shown, it is not given here. [ ]: non-standard residue; d: D form. Apa = (S)-2-amino-4[(2-amino)pyrimidinyl]methylalanine; Phe(4-guanidino) = N=C(N)Nc1ccc(C[C@H](N)C(=O)O)cc1; Cha = N[C@@H](CC1CCCCC1)C(=O)O; Orn = NCCC[C@H](N)C(=O)O Bounds are passed on as bounds.

In experiment [1] the target is T1, rat PTHR endogenously expressed in ROS 17/2.8 cells (rat, UniProt P25961 27-591).
T1 sequence (looked up): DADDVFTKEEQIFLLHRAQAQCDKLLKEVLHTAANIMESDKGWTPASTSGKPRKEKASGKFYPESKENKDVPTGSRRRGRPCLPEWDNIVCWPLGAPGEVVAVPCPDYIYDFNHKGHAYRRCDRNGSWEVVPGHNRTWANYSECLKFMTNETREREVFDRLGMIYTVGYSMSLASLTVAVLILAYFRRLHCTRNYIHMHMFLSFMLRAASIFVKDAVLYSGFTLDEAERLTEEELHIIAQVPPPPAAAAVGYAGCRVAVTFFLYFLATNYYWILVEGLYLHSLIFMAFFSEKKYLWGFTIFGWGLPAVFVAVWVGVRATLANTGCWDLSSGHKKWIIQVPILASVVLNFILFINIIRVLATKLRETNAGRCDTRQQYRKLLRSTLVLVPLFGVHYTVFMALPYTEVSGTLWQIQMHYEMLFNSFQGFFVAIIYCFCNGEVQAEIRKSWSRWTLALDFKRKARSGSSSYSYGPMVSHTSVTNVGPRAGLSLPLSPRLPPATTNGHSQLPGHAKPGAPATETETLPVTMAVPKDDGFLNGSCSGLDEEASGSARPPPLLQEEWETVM
Briefly: cell-based or functional assay.

Experiment [2] deals with T2, wild-type human PTHR (human, UniProt Q03431 27-593).
T2 construct: whole, on cells; also called PTHR-WT; intact PTHR
T2 sequence (looked up): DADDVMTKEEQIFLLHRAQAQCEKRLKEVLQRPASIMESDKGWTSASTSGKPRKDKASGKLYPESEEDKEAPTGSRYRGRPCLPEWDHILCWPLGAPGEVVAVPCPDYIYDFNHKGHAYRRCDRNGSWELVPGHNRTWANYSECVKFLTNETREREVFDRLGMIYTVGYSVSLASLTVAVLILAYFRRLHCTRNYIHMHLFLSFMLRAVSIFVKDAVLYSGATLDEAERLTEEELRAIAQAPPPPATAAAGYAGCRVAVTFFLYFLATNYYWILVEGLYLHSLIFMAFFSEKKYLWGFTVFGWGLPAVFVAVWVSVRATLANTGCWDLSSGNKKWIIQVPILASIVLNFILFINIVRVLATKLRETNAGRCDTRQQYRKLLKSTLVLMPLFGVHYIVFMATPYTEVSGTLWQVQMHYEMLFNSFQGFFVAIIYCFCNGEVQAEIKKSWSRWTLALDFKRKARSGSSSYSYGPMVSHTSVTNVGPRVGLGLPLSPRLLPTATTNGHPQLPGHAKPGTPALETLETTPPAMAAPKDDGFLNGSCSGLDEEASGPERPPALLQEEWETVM
Briefly: competition binding, HKRK-B7 cells, 125I-PTH(1-34) tracer.

The target of experiment [3] is T2, wild-type human PTHR. Described as above. In short, it runs like this:
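Intact HKRK-B7 cells stably expressing hPTHR incubated 4 h at 15° C with ¹²⁵I-PTH(1-34) tracer and unlabeled peptide (3×10⁻⁹ to 1×10⁻⁵ M). Nonspecific binding defined with 1×10⁻⁶ M PTH(1-31)NH₂. Bound activity counted after lysis and expressed as % specific binding without competitor; values in nM, mean ± s.e.m.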
The source holds these as a separate data set.

In a further experiment the target is PTHR-delNt (human) (UniProt Q03431). Briefly: competition binding, COS-7 membranes, 125I-[Aib1,3,M]PTH(1-15) tracer.
In experiment [4] the target is T1, rat PTHR endogenously expressed in ROS …. Briefly: competition binding, ROS 17/2.8 cells, 125I-PTH(1-34) tracer. On the procedure: Receptor binding—Binding to the wild-type human PTHR in intact HKRK-B7 cells and ROS 17/2.8 cells was assessed using ¹²⁵I-PTH(1-34) as a tracer radioligand, as described (Shimizu, M., (2001) Endocrinology 142:3068-3074). In brief, the cells in 24-well plates (about 500,000 cells per well) were incubated in binding buffer containing radioligand (about 100,000 cpm per well) with or without unlabeled peptide ligand (3×10⁻⁹ to 1×10⁻⁵ M) for four hours at 15° C. The binding mixture was then removed by aspiration, the cells were rinsed three times with binding buffer, lysed in 1 M NaOH, and the entire lysate was counted for gamma-irradiation in a gamma counter. Binding to PTHR-delNt in COS-7 cell membranes was assessed in 96-well, vacuum filtration plates (Multiscreen-Durapore HV, […], Millipore Corp., Millford, Mass.) using ¹²⁵I-[Aib^{1,3},M]PTH(1-15)NH₂ as a tracer radioligand, as described (Dean, T., (2006) Mol Endocrinol 20:931-942). In brief, cell membranes (20 μg/well) were incubated in membrane binding buffer containing radioligand (30,000 cpm/well) with or without unlabeled peptide ligand (3×10⁻⁹ to 1×10⁻⁵ M) for 90 minutes at 21° C. The plates were then subject to rapid vacuum filtration, the filters were washed once with buffer, detached from the plate and counted for gamma-irradiation in a gamma counter. Non-specific binding was defined as the binding observed in the presence of 1×10⁻⁶ M PTH(1-31)NH₂ for HKRK-B7 and ROS 17/2.8 cells, and 1×10⁻⁶ M [Aib^{1,3},M]PTH(1-15)NH₂ for PTHR-delNt. Specifically bound radioactivity was calculated as a percentage of the radioactivity specifically bound in the absence of competing ligand.
Effects on cAMP and IP signaling—Selected analogs of [Ala¹,Arg¹⁹]hPTH(1-31)NH₂ with substitutions that markedly impaired binding to HKRK-B7 cells were assessed for their capacity to bind to the PTHR in ROS 17/2.8 cells and to stimulate cAMP-signaling responses in these cells. These bone-derived cells endogenously express the rat PTHR at a more physiological level than is found in HKRK-B7 cells (approximately 80,000 PTHRs per cell vs. 950,000 PTHRs per cell) and, have generally been found (data not shown) to yield closer correlations between PTH analog binding affinity and cAMP-signaling potency than do HKRK-B7 cells, presumably due to their lower PTHR expression level.

For experiment [5], the target named is T2, wild-type human PTHR. Put plainly: competition binding, HKRK-B7 cells, 125I-PTH(1-34) tracer.

B1: [Ala^1,Arg^19]hPTH(1-31)NH2 Trp^23→Cha (peptide)
peptide: AVSEIQLMHNLGKHLNSMRRVE[Cha]LRKKLQDV-NH2
modifications: N-terminus assumed
SMILES: CC[C@H](C)[C@H](NC(=O)[C@H](CCC(=O)O)NC(=O)[C@H](CO)NC(=O)[C@@H](NC(=O)[C@H](C)N)C(C)C)C(=O)N[C@@H](CCC(N)=O)C(=O)N[C@@H](CC(C)C)C(=O)N[C@@H](CCSC)C(=O)N[C@@H](Cc1c[nH]cn1)C(=O)N[C@@H](CC(N)=O)C(=O)N[C@@H](CC(C)C)C(=O)NCC(=O)N[C@@H](CCCCN)C(=O)N[C@@H](Cc1c[nH]cn1)C(=O)N[C@@H](CC(C)C)C(=O)N[C@@H](CC(N)=O)C(=O)N[C@@H](CO)C(=O)N[C@@H](CCSC)C(=O)N[C@@H](CCCNC(=N)N)C(=O)N[C@@H](CCCNC(=N)N)C(=O)N[C@H](C(=O)N[C@@H](CCC(=O)O)C(=O)N[C@@H](CC1CCCCC1)C(=O)N[C@@H](CC(C)C)C(=O)N[C@@H](CCCNC(=N)N)C(=O)N[C@@H](CCCCN)C(=O)N[C@@H](CCCCN)C(=O)N[C@@H](CC(C)C)C(=O)N[C@@H](CCC(N)=O)C(=O)N[C@@H](CC(=O)O)C(=O)N[C@H](C(N)=O)C(C)C)C(C)C
Regarding B1, the “cAMP EC50, ROS 17/2.8 cells” value in experiment [1] is 0.82 nM. Besides, in the experiment with wild-type human PTHR [2], the “fold reduction in binding affinity vs [Ala^1,Arg^19]PTH(1-31)NH2” value worked out at 14 fold and the “fold reduction in binding vs [Ala^1,Arg^19]PTH(1-31)NH2” value is approximately 12 fold. Moreover, in the experiment with wild-type human PTHR [3], the concentration for half-maximal inhibition (IC50) (commonly the midpoint of a concentration-inhibition curve) is 546 nM. Also, in the experiment with PTHR-delNt (human), the IC50 worked out at 867 nM and the fold change in binding affinity vs [Ala^1,Arg^19]PTH(1-31)NH2 is less than 3 fold. For the same molecule, in experiment [4], the IC50 was found to be 19 nM.

B2: PTH(1-31)NH2 Arg^20→Orn (peptide)
peptide: SVSEIQLMHNLGKHLNSME[Orn]VEWLRKKLQDV-NH2
modifications: N-terminus assumed
SMILES: CC[C@H](C)[C@H](NC(=O)[C@H](CCC(=O)O)NC(=O)[C@H](CO)NC(=O)[C@@H](NC(=O)[C@@H](N)CO)C(C)C)C(=O)N[C@@H](CCC(N)=O)C(=O)N[C@@H](CC(C)C)C(=O)N[C@@H](CCSC)C(=O)N[C@@H](Cc1c[nH]cn1)C(=O)N[C@@H](CC(N)=O)C(=O)N[C@@H](CC(C)C)C(=O)NCC(=O)N[C@@H](CCCCN)C(=O)N[C@@H](Cc1c[nH]cn1)C(=O)N[C@@H](CC(C)C)C(=O)N[C@@H](CC(N)=O)C(=O)N[C@@H](CO)C(=O)N[C@@H](CCSC)C(=O)N[C@@H](CCC(=O)O)C(=O)N[C@@H](CCCN)C(=O)N[C@H](C(=O)N[C@@H](CCC(=O)O)C(=O)N[C@@H](Cc1c[nH]c2ccccc12)C(=O)N[C@@H](CC(C)C)C(=O)N[C@@H](CCCNC(=N)N)C(=O)N[C@@H](CCCCN)C(=O)N[C@@H](CCCCN)C(=O)N[C@@H](CC(C)C)C(=O)N[C@@H](CCC(N)=O)C(=O)N[C@@H](CC(=O)O)C(=O)N[C@H](C(N)=O)C(C)C)C(C)C
In the case of B2, the IC50 in the experiment with wild-type human PTHR [5] is more than 10000 nM. Moreover, in the experiment with PTHR-delNt (human), the 50% inhibitory concentration (IC50) is 5530 nM and the fold difference of IC50 from PTH(1-31)NH2 was less than 4 fold.
For SVSEIQLMHNLGKHLNSME[Apa]VEWLRKKLQDV-NH2 [PTH(1-31)NH2 Arg^20→Apa] the same measures were more than 10000 nM, 5740 nM and less than 4 fold.

B3: PTH(1-31)NH2 Arg^20→Gph (peptide)
peptide: SVSEIQLMHNLGKHLNSME[Phe(4-guanidino)]VEWLRKKLQDV-NH2
modifications: N-terminus assumed
SMILES: CC[C@H](C)[C@H](NC(=O)[C@H](CCC(=O)O)NC(=O)[C@H](CO)NC(=O)[C@@H](NC(=O)[C@@H](N)CO)C(C)C)C(=O)N[C@@H](CCC(N)=O)C(=O)N[C@@H](CC(C)C)C(=O)N[C@@H](CCSC)C(=O)N[C@@H](Cc1c[nH]cn1)C(=O)N[C@@H](CC(N)=O)C(=O)N[C@@H](CC(C)C)C(=O)NCC(=O)N[C@@H](CCCCN)C(=O)N[C@@H](Cc1c[nH]cn1)C(=O)N[C@@H](CC(C)C)C(=O)N[C@@H](CC(N)=O)C(=O)N[C@@H](CO)C(=O)N[C@@H](CCSC)C(=O)N[C@@H](CCC(=O)O)C(=O)N[C@@H](Cc1ccc(NC(=N)N)cc1)C(=O)N[C@H](C(=O)N[C@@H](CCC(=O)O)C(=O)N[C@@H](Cc1c[nH]c2ccccc12)C(=O)N[C@@H](CC(C)C)C(=O)N[C@@H](CCCNC(=N)N)C(=O)N[C@@H](CCCCN)C(=O)N[C@@H](CCCCN)C(=O)N[C@@H](CC(C)C)C(=O)N[C@@H](CCC(N)=O)C(=O)N[C@@H](CC(=O)O)C(=O)N[C@H](C(N)=O)C(C)C)C(C)C
Take B3: in the experiment with wild-type human PTHR [5], the 50% inhibitory concentration (IC50) was more than 10000 nM. In the experiment with PTHR-delNt (human), this molecule registered an IC50 of 2050 nM and a fold difference of IC50 from PTH(1-31)NH2 of less than 4 fold.

B4: [Ala^1,Arg^19]hPTH(1-31)NH2 Leu^24→Cha (peptide)
peptide: AVSEIQLMHNLGKHLNSMRRVEW[Cha]RKKLQDV-NH2
modifications: N-terminus assumed
SMILES: CC[C@H](C)[C@H](NC(=O)[C@H](CCC(=O)O)NC(=O)[C@H](CO)NC(=O)[C@@H](NC(=O)[C@H](C)N)C(C)C)C(=O)N[C@@H](CCC(N)=O)C(=O)N[C@@H](CC(C)C)C(=O)N[C@@H](CCSC)C(=O)N[C@@H](Cc1c[nH]cn1)C(=O)N[C@@H](CC(N)=O)C(=O)N[C@@H](CC(C)C)C(=O)NCC(=O)N[C@@H](CCCCN)C(=O)N[C@@H](Cc1c[nH]cn1)C(=O)N[C@@H](CC(C)C)C(=O)N[C@@H](CC(N)=O)C(=O)N[C@@H](CO)C(=O)N[C@@H](CCSC)C(=O)N[C@@H](CCCNC(=N)N)C(=O)N[C@@H](CCCNC(=N)N)C(=O)N[C@H](C(=O)N[C@@H](CCC(=O)O)C(=O)N[C@@H](Cc1c[nH]c2ccccc12)C(=O)N[C@@H](CC1CCCCC1)C(=O)N[C@@H](CCCNC(=N)N)C(=O)N[C@@H](CCCCN)C(=O)N[C@@H](CCCCN)C(=O)N[C@@H](CC(C)C)C(=O)N[C@@H](CCC(N)=O)C(=O)N[C@@H](CC(=O)O)C(=O)N[C@H](C(N)=O)C(C)C)C(C)C
Take B4: in experiment [1], the “cAMP EC50, ROS 17/2.8 cells” value was 0.83 nM. Further, in the experiment with wild-type human PTHR [2], the “fold reduction in binding affinity vs [Ala^1,Arg^19]PTH(1-31)NH2” value came out at 11 fold and the “fold reduction in binding vs [Ala^1,Arg^19]PTH(1-31)NH2” value is approximately 12 fold. In the experiment with wild-type human PTHR [3], this molecule had an IC50 of 436 nM. In the experiment with PTHR-delNt (human), the concentration for half-maximal inhibition (IC50) is 283 nM and the fold change in binding affinity vs [Ala^1,Arg^19]PTH(1-31)NH2 is less than 3 fold. The IC50 in experiment [4] worked out at 7.3 nM.
